# T1: C-reactive protein (CRP) (UniProt P02741 P02741:19-224)
# T1 sequence: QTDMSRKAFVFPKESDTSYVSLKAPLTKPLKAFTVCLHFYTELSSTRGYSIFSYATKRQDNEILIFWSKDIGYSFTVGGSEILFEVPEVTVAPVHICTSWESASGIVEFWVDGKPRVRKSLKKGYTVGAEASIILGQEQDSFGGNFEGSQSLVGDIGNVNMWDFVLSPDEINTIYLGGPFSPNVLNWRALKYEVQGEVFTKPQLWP
# Legend:
# [1] = target: T2, amyloid beta 1-40 oligomer (UniProt P05067 P05067:672-711); assay: ELONA; signal from 1 nM versus 10 nM for T-SO530; also strong spot in blotting FIG. 6; conditions: tags: Peptide Institute peptide; oligomerised from HFIP/water; chain copies: oligomer (stated); label: 5'-FITC
# T2 sequence (P05067 672-711, one chain of several): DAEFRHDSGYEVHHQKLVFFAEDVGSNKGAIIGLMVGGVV
# Description: (§1) 100 μL of 100 μM of an Aβ oligomer solution or PBS buffer was added to each well of MaxiSorp (registered trademark) plate (Nunc Co., Ltd) and incubated at 37° C. for 1.5 hours to immobilize the Aβ oligomer on the wells. Blocking of each well was performed with a 2% (w/v) BSA solution (TBS-T: 25 mM Tris-HCl, pH 7.4, 0.15M NaCl, 0.005M KCl, 0.05% Tween-20) to produce an Aβ oligomer-immobilized plate.
# (§2) To each well of the Aβ oligomer-immobilized plate was added the each FITC-labeled aptamer prepared in a concentration of 1 nM, 2.5 nM, or 10 nM, and incubation at room temperature for 60 minutes was carried out. After washing the wells, an HRP-modified anti-FITC antibody (Cosmo BiO Co., Ltd) was added to the wells and incubation was performed at room temperature. After washing the wells, an HRP-luminescent substrate was added to detect the binding of each aptamer to the oligomer by chemiluminescence. FIG. 5 illustrates the results.
# [2] = target: T2, amyloid beta 1-40 oligomer; assay: ELONA; oligomer immobilised on plate, room temp; conditions: tags: Peptide Institute peptide, oligomerised from HFIP/water, chain copies: oligomer (stated), label: 5'-FITC
# Description: as §1, §2
# Further, using the 10T dimer and the original aptamer T-SO530 in a concentration of 1 nM, 2.5 nM, 10 nM, 20 nM, or 60 nM, an experiment for binding the aptamers to the Aβ oligomer was performed in the same manner as above. Based on the obtained binding signals, curve fitting was performed using GraphPad Prism (MDF Co., Ltd.) to calculate a binding dissociation constant (Kd).
# [3] = target: T3, alpha-synuclein oligomer (UniProt P37840 P37840:1-140); assay: aptamer blotting; did not retain binding of T-SO504
# [4] = target: T2, amyloid beta 1-40 oligomer; assay: aptamer blotting, 500 nM; conditions: tags: Peptide Institute peptide; oligomerised from HFIP/water; chain copies: oligomer (stated); label: 5'-FITC; G4
# Description: (§3) α-synuclein monomer, oligomer, and fibril (1 μg) was immobilized on a nitrocellulose membrane and dried. Then, the membrane was incubated with 4% skim milk prepared using TBS-T (25 mM Tris-HCl, pH 7.4, 0.15 M NaCl, 0.005 M KCl, 0.05% Tween-20) at room temperature for 1 hour for blocking. After that, the membrane was washed with a sufficient amount of TBS-T (2 min×twice and 10 min×one time). The obtained plural oligonucleotides modified with FITC at the 5′ end (f.c. 100 nM) were folded, and the DNA and the membrane were incubated at room temperature for 1 hour. Next, the membrane was washed with a sufficient amount of TBS-T (2 min×twice, 10 min×one time, and 5 min×twice). After that, an HRP-modified anti-FITC antibody diluted to 1000 times with TBS-T and the membrane were incubated at room temperature for 1 hour and the membrane was washed with a sufficient amount of TBS-T (2 min×twice, 10 min×one time, and 5 min×twice). ECL Plus Western blotting detection reagents (GE Healthcare Ltd.) were added to the membrane, and HRP chemiluminescence was detected by TYPHOON 8600 to observe the binding of the DNA to the protein.
# Spot intensities of portions with the immobilized α-Syn oligomer were analyzed to create a calibration curve, whereby an oligomer concentration included in the Aβ₁₋₄₀ oligomer sample was roughly estimated. After that, the Aβ₁₋₄₀ oligomer was immobilized on a nitrocellulose membrane in such a manner that the A11 has the same level of spot intensity, and aptamer blotting was performed using 500 nM of each aptamer. As a control, the A11 was used to perform the same experiment.
# [5] = target: PQQ-dependent glucose dehydrogenase (PQQGDH) (UniProt P13650 P13650:25-478); assay: aptamer blotting, 5 pmol protein; conditions: label: 5'-FITC; G4
# PQQ-dependent glucose dehydrogenase (PQQGDH), sequence (P13650 25-478, one chain of several): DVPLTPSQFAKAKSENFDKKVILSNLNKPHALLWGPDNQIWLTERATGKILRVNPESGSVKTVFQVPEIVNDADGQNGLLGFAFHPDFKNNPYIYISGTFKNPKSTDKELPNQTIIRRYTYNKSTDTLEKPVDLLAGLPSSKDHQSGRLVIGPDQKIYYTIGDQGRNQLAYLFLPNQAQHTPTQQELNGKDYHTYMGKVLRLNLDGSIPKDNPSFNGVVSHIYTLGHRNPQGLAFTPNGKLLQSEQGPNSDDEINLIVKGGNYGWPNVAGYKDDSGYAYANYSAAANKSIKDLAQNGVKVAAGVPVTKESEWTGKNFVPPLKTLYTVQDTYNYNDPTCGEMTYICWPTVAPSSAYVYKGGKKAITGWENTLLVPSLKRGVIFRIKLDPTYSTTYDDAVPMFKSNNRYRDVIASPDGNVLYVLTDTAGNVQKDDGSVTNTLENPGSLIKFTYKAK
# Description: as §3
# (§4) On the same nitrocellulose membrane, 5 pmol of each of glucose dehydrogenase (PQQGDH) dependent on the coenzyme PQQ, a C-reactive protein (CRP) (Polyscience Corp.), luciferase, and an IgG antibody (Sigma Aldrich Company), and 0.5 μg of α-synuclein oligomer were immobilized. Using the membrane, specificity evaluation was performed by an aptamer blotting method.
# [6] = target: T1, C-reactive protein (CRP); assay: aptamer blotting, 5 pmol protein; conditions: tags: Polyscience Corp; chain copies: 5; label: 5'-FITC; G4
# Description: as §3, §4
# [7] = target: T3, alpha-synuclein oligomer; assay: aptamer blotting
# [8] = target: T3, alpha-synuclein oligomer; assay: aptamer blotting; binding improved over T-SO504
binder,measurement,setting,value
5T dimer (structured_DNA) DNA: TTTTTGGTGCGGCGGGACTAGTGGGTGTGTTTTTGGTGCGGCGGGACTAGTGGGTGTG,binding result,[1],binds
10T dimer (structured_DNA) DNA: TTTTTGGTGCGGCGGGACTAGTGGGTGTGTTTTTTTTTTGGTGCGGCGGGACTAGTGGGTGTG,Kd,[2],1.44 nM
AAAAAGGGTGGGCAAAGGGAA (ssDNA) [504M1],binding result,[3],no binding
GCGGTAGGGTGTGAGCGGAAGGGG (structured_DNA) [T-SO602],binding result,[4],binds
TTTTTGGTGCGGCGGGACTAGTGGGTGTG (structured_DNA) [tT-SO530],Kd,[2]; G4,9.03 nM
GGGTCGGCTGTCCGTGGGTGGGGA (structured_DNA) [T-SO606],binding result,[4],binds
same,binding result,[5],no binding
same,binding result,[6],no binding
GGTGGCTGGAGGGGGCGCGAACG (structured_DNA) [T-SO517],binding result,[4],binds
same,binding result,[5],no binding
same,binding result,[6],no binding
CGAGGGGCGTCTGGGAGTGGTCGG (structured_DNA) [T-SO554],binding result,[4],binds
CAGGGGTGGGCAAAGGGCGGTGGTG (structured_DNA) [T-SO504],binding result,[4],binds
GGTGCGGCGGGACTAGTGGGTGTG (structured_DNA) [T-SO530],binding result,[4],binds
AAAAAGGGCAAAGGGAA (ssDNA) [504M2],binding result,[3],no binding
TTTTTCAGGGGTGGGCAAAGGGCGGTGGTG (structured_DNA) [tT-SO504],binding result,[7],binds
GCGTGTGGGGCTTGGGCAGCTGGG (structured_DNA) [T-SO552],binding result,[4],binds
GCCTGTGGTGTTGGGGCGGGTGCG (structured_DNA) [T-SO508],binding result,[4],binds
504W (structured_DNA) DNA: AAAAACAGGGGTGGGCAAAGGGCGGTGGTGTTTTTCAGGGGTGGGCAAAGGGCGGTGGTG,binding result,[8],binds
